By Kd is commonly meant the equilibrium constant for the complex coming apart. High values mean a looser complex, low ones a tighter complex.

The target in assay [1] is Pks4 SAT(C117A)-KS-MAT tridomain. Put plainly: cross-linking.
For assay [2] the target is unchanged. Put plainly: ITC. (Isothermal titration calorimetry measures the heat released or taken up as one component is titrated into another.)

“Pks4 ACP loaded with a pantetheine crosslinker (crypto-ACP) (domain or fragment)”: in assay [1], the stoichiometry N (ACP monomers per S0KM dimer) turned out to be 2.
“Pks4 apo-ACP (stand-alone ACP domain of Pks4) (domain or fragment)” came in with a Kd in assay [2] of 15 µM. That is a double-digit micromolar value.
Still for that read-out and setting: the value for “PksA apo-ACP (stand-alone ACP domain of PksA) (domain or fragment)” was 30 µM.

Source of the values: publication PMC3796367.
